Experimental data: patent publication US20190010233A1
“And” between values parts separate entries of the source, which are not always exact repeats. Equal entries are not always repeated.

Legend:
[1] = target: cyno PD-L1^ECD-hFc protein (cyno) (UniProt G7PSE7); assay: ELISA, 1 nM mAb
[2] = target: human PD-L1^ECD-hFc protein (human) (UniProt Q9NZQ7); assay: ELISA, 1 nM mAb
[3] = target: cyno PD-L1^ECD-hFc protein (cyno) (UniProt G7PSE7); assay: ELISA, 3 nM mAb
[4] = target: human PD-L1^ECD-hFc protein (human) (UniProt Q9NZQ7); assay: ELISA, 3 nM mAb
[5] = target: human PD-L1^ECD-hFc protein (human) (UniProt Q9NZQ7); assay: ELISA, 30 nM mAb
[6] = target: cyno PD-L1^ECD-hFc protein (cyno) (UniProt G7PSE7); assay: ELISA, 10 nM mAb
[7] = target: human PD-L1^ECD-hFc protein (human) (UniProt Q9NZQ7); assay: ELISA, 10 nM mAb
[8] = target: cyno PD-L1^ECD-hFc protein (cyno) (UniProt G7PSE7); assay: ELISA, 30 nM mAb
[9] = target: human PD-L1^ECD-hFc protein (human) (UniProt Q9NZQ7); assay: ELISA, 30 nM mAb; remark: listed apart in the source
[10] = target: cyno PD-L1^ECD-hFc protein (cyno) (UniProt G7PSE7); assay: ELISA, 10 nM mAb; remark: listed apart in the source
[11] = target: cyno PD-L1^ECD-hFc protein (cyno) (UniProt G7PSE7); assay: ELISA, 0.1 nM mAb
[12] = target: human PD-L1^ECD-hFc protein (human) (UniProt Q9NZQ7); assay: ELISA, 0.1 nM mAb
[13] = target: cyno PD-L1^ECD-hFc protein (cyno) (UniProt G7PSE7); assay: ELISA, 100 nM mAb
[14] = target: human PD-L1^ECD-hFc protein (human) (UniProt Q9NZQ7); assay: ELISA, 100 nM mAb
[15] = target: cyno PD-L1^ECD-hFc protein (cyno) (UniProt G7PSE7); assay: ELISA, 0.01 nM mAb
[16] = target: human PD-L1^ECD-hFc protein (human) (UniProt Q9NZQ7); assay: ELISA, 0.01 nM mAb
[17] = target: cyno PD-L1^ECD-hFc protein (cyno) (UniProt G7PSE7); assay: ELISA, 0.370 nM mAb
[18] = target: human PD-L1^ECD-hFc protein (human) (UniProt Q9NZQ7); assay: ELISA, 0.370 nM mAb
[19] = target: cyno PD-L1^ECD-hFc protein (cyno) (UniProt G7PSE7); assay: ELISA, 1.111 nM mAb
[20] = target: human PD-L1^ECD-hFc protein (human) (UniProt Q9NZQ7); assay: ELISA, 1.111 nM mAb
[21] = target: cyno PD-L1^ECD-hFc protein (cyno) (UniProt G7PSE7); assay: ELISA, 0.0001 nM mAb
[22] = target: human PD-L1^ECD-hFc protein (human) (UniProt Q9NZQ7); assay: ELISA, 0.0001 nM mAb
[23] = target: full length human PD-L1 on cells (human) (UniProt Q9NZQ7); assay: FACS CHOK1-hPD-L1, 3 nM mAb
Chain of full length human PD-L1 on cells (human) (Q9NZQ7 19-290 limits assumed): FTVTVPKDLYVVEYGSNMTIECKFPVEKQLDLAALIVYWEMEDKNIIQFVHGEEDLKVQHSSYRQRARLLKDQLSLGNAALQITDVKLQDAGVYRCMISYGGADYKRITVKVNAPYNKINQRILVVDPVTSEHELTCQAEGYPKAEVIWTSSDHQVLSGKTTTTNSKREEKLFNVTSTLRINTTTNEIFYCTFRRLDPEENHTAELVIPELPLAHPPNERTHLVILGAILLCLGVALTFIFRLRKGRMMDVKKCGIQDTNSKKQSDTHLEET

[24] = target: full length cyno PD-L1 on cells (cyno) (UniProt G7PSE7); assay: FACS CHO-K1-cPD-L1, 1 nM mAb
Chain of full length cyno PD-L1 on cells (cyno) (G7PSE7 entry or part of it limits assumed): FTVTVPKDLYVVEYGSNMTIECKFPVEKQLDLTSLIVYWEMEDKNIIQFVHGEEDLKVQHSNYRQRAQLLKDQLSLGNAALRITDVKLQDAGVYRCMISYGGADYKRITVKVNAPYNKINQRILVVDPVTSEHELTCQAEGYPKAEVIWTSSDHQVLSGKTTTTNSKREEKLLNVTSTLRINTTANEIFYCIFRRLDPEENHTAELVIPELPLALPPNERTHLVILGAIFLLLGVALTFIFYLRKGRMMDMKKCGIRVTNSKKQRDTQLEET

[25] = target: full length human PD-L1 on cells (human) (UniProt Q9NZQ7); assay: FACS CHOK1-hPD-L1, 30 nM mAb
[26] = target: full length human PD-L1 on cells (human) (UniProt Q9NZQ7); assay: FACS CHO-K1-hPD-L1, 10 nM mAb
[27] = target: full length human PD-L1 on cells (human) (UniProt Q9NZQ7); assay: FACS CHOK1-hPD-L1, 0.3 nM mAb
[28] = target: full length cyno PD-L1 on cells (cyno) (UniProt G7PSE7); assay: FACS CHO-K1-cPD-L1, 30 nM mAb
[29] = target: full length cyno PD-L1 on cells (cyno) (UniProt G7PSE7); assay: FACS CHO-K1-cPD-L1, 0.01 nM mAb
[30] = target: full length cyno PD-L1 on cells (cyno) (UniProt G7PSE7); assay: FACS CHO-K1-cPD-L1, 0.14 nM mAb
[31] = target: full length cyno PD-L1 on cells (cyno) (UniProt G7PSE7); assay: FACS CHO-K1-cPD-L1, 0.41 nM mAb
[32] = target: full length cyno PD-L1 on cells (cyno) (UniProt G7PSE7); assay: FACS CHO-K1-cPD-L1, 3.70 nM mAb
[33] = target: full length cyno PD-L1 on cells (cyno) (UniProt G7PSE7); assay: FACS CHO-K1-cPD-L1, 33.33 nM mAb
[34] = target: full length cyno PD-L1 on cells (cyno) (UniProt G7PSE7); assay: FACS CHO-K1-cPD-L1, 0.003 nM mAb
[35] = target: full length cyno PD-L1 on cells (cyno) (UniProt G7PSE7); assay: FACS CHO-K1-cPD-L1, 100.00 nM mAb

Chain of cyno PD-L1^ECD-hFc protein (cyno) (G7PSE7 entry or part of it limits assumed): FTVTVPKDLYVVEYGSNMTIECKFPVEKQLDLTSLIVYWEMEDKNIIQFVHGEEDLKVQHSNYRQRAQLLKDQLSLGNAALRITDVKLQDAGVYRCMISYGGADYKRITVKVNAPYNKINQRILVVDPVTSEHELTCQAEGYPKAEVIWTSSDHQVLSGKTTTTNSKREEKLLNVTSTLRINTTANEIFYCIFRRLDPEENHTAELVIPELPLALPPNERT
Chain of human PD-L1^ECD-hFc protein (human) (Q9NZQ7 19-239): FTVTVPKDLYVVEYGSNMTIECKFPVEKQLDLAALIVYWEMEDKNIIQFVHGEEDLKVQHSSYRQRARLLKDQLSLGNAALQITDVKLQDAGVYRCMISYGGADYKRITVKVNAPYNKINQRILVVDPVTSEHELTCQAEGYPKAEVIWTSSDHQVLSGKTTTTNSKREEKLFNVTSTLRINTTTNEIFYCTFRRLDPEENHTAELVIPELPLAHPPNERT

OD450 nm [1]: 0.0989
OD450 nm [2]: 0.157
OD450 nm [3]: 0.282
OD450 nm [4]: 0.277
OD450 nm [5]: 0.12
OD450 nm [6]: 0.15
OD450 nm [7]: 0.225
OD450 nm [8]: 0.12
OD450 nm [9]: 0.315
OD450 nm [10]: 0.134
OD450 nm [11]: 0.0967
OD450 nm [12]: 0.149
OD450 nm [13]: 0.398
OD450 nm [14]: 0.767
OD450 nm [15]: 0.0987
OD450 nm [16]: 0.154
OD450 nm [17]: 0.12
OD450 nm [18]: 0.12
OD450 nm [19]: 0.16
OD450 nm [20]: 0.16
OD450 nm [21]: 0.0988
OD450 nm [22]: 0.162
Mean fluorescence intensity [23]: 3.56
Mean fluorescence intensity [24]: 1.83
Mean fluorescence intensity [25]: 5.73
Mean fluorescence intensity [26]: 2.73
Mean fluorescence intensity [27]: 3.16
Mean fluorescence intensity [28]: 4.12
Mean fluorescence intensity [29]: 1.87
Mean fluorescence intensity [30]: 2.74
Mean fluorescence intensity [31]: 2.69
Mean fluorescence intensity [32]: 2.73
Mean fluorescence intensity [33]: 2.94
Mean fluorescence intensity [34]: 3.62
Mean fluorescence intensity [35]: 3.33 and 8.11
Substance: IgG control (human IgG) (antibody)
